# Laboratory results: the supplement of paper PMC9170038
# System: K4 kissing-loop RNA reporter
# Assay: apparent KD of K4 kissing-loop reporter; higher = weaker reporter binding
# Conditions: Eterna round: R107
# Protocol: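 RNA-MaP round R107: designed RNA switches with theophylline, tryptophan, arginine or FMN aptamers are transcribed on-chip within common flanks. They are titrated with a labelled K4 kissing-loop RNA reporter in RNA-MaP buffer (100 mM Tris pH 7.5, 80 mM KCl, 4 mM MgCl2), without ligand or with the indicated ligand. Median apparent KD per design.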
# [1] = input ligand: theophylline 20 uM
# [2] = input ligand: tryptophan 2.4 mM
# 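Note: bound reporter read as fluorescence of individual clusters on recovered sequencing chips by microscopy, with normalized cluster intensities fitted with a binding model.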
Sequence,apparent KD of K4 kissing-loop reporter (input ligand: FMN 200 uM),apparent KD of K4 kissing-loop reporter (input ligand: arginine 13.2 mM),apparent KD of K4 kissing-loop reporter (input ligand: none),apparent KD of K4 kissing-loop reporter [1],apparent KD of K4 kissing-loop reporter [2]
AGAGAUAUAUGAGGAUAUGAGAUAGUUAAUGAGUGAGUUAUAGUGUAGUUUGGUUAGUGAUGUUAUUUAGAAGGCGUGAGUGAUG [reefmullin],140 nM,76.7 nM,131 nM,107 nM,83.3 nM
AGAGUACGAAAGUACUCCUCUACACACUGUCGAGGACCGGUACGGCCGCCACUCGAGUUGAGUGAUGUUCGAUAGUGUGUAGAGA [Omei KL Tryp A SS C v4],66.4 nM,57.3 nM,30 nM,104 nM,142 nM
AGAGUUAUAUGAGGAUAUGGGAUAGUAAAUGAGUGAGUUAUAGUGUAGUUUGUUUAGUGAUGUUAUUUAGAAGGCGUGAGUGAUG [dgnnmullin],193 nM,114 nM,100 nM,113 nM,86.4 nM
AGAGUUUUAUGAGGAUAUGAGAUAGUUAAUGAGUGAGUUAUAGUGUAGUUUGUUUAGUGAUGUUAUUUAGAAGGCGUGAGUGAUG [ssxsmullin],151 nM,95.9 nM,122 nM,132 nM,84.4 nM
AGAUGUUUAGCUCAAAGAACGAAAAUGGAAGGAGCGUGCGAAAGCACAGGUAGGUCGCCAGUGAUGUUGGAACCUGAGCAUCAAA [#SwitchBubble 16 #K4Late],316 nM,274 nM,262 nM,244 nM,230 nM
AGCAGUCACUCGAAAACCAUCGAAGAUGGACGAGGACCGGUACGGCCGCCACUCGGAGUGAUGUUCCGAAGACUGCAAAAUAAAA [#SwitchBubble 16],380 nM,402 nM,433 nM,346 nM,435 nM
AGCCACGACGCGGCCGCCACUGCCAUUAAACGUAAGGCAAAUCUAAUCUUCGAGUGAUGUUCGGGCAGGACCGGGCGGAGACUUG [theeternabot_sameState_KL_Trp_B_18],636 nM,300 nM,478 nM,772 nM,371 nM
AGCCGAAAGGCGAGUGCUGUCACUCCGGAAGGAGCGCUCAAAAGAGCAGGUAGGUCGCCGGAGUGAUGUUCCGGUGCAGCACUCA [Omei KL Arginine A Exc B v4],594 nM,408 nM,580 nM,751 nM,623 nM
AGCGCUGCCUGAGGAUAUAGAGACGAGUGAUGUUCGUGGAUUGAUACCAGUGAUGUUGGUCUAUUUCUAGAAGGCAGGCGAUCGU [Exclusion FMN B GF 3],131 nM,85.6 nM,103 nM,105 nM,103 nM
AGCGUCCCUACGGCCGCCACUGGGAGUGAUGUUCCCAGGUUAGGCCUGAGGAUACUAUGGAUCGCCAGGACCGGGUAGCGACCAA [Zaarin],93.4 nM,71.8 nM,85.4 nM,97.2 nM,83.5 nM
AGCUCAGAGUGACUCGAUAAGAGUCACAAACGAGGACCGGUACGGCCGCCACUCGAAAUAAUGAGAGUGAUGUUCUCGCUGAGCA [#SwitchBubble 2 #StaticStem #K4Late],221 nM,98.6 nM,89 nM,145 nM,793 nM
AGGAGUGAUGUUCCUACAUACACGGUCCGACGAGGACCGGUACGGCCGCCACUCGCGUCCCAGUGAUGUUGGGAUUUGGCGUACG [Exclusion Tryptophan A GF 17],162 nM,155 nM,155 nM,171 nM,154 nM
AGGAUAUAGUGAUGUUAUAUAAGAAGAAAACGAGGACCGGUACGGCCGCCACUCGAAGCGGCUACUAAGAGGGAAAGAAGAGGAA [ExTryptoA.A],174 nM,181 nM,215 nM,294 nM,143 nM
AGGAUCCGUCGACAAAAGUCGACAUAAACCGAGGAUAUGACGAAAGUCAGAAGGUGGUCAUAAGACCAGUGAUGUUGGUGGAUCC [FmnA 14 #SwitchBubble #K4Late],1250 nM,282 nM,494 nM,318 nM,305 nM
AGGAUGUAGUGAUGUUAUAUAAGAAGUAAACGAGGACCGGUACGGCCGCCACUCGAAACGGCUACUAGCGCGUUGCGAGGUGUGC [ExTryptoA.Cf],425 nM,475 nM,808 nM,510 nM,402 nM
AGGAUGUAGUGAUGUUAUAUAAGAAGUAAACGAGGACCGGUACGGCCGCCACUCGAAGCGGCUACUAGCGUGUUGCGAGGUGCGC [ExTryptoA.Cd],370 nM,324 nM,229 nM,230 nM,197 nM
AGGCACGAGCAAGGAUAUCGAGUAGAGUGAUGUUCUGCCUGGGUUGGCUCGGAAGGGCCUUCCCAGCGAGAAGGUGCUCGUGCCU [#2 Same State - FMN A Attempt #16 (HarryS)],189 nM,637 nM,590 nM,674 nM,493 nM
AGGCACGAGCAAGGAUAUCGAGUAGAGUGAUGUUCUGCCUGGGUUGGCUCGUAAGAGCCUUCUCAGCGAGAAGGUGCUCGUGCCU [#2 Same State - FMN A Attempt #20 (HarryS)],217 nM,511 nM,544 nM,511 nM,944 nM
AGGCGGCAUAAUUGACUGAAAAGAAAUUAACGAGGACCGGUACGGCCGCCACUCGAACACCAGUGAUGUUGGUAUGGGAUAAUUU [Exclusion Tryptophan A GF 18],91.6 nM,62.7 nM,52.9 nM,169 nM,47 nM
AGGGAACGCACGGAUACCAGACUCAUAGUGAUGUUGUGGGUAUAAAUUAGCGCAUACACAGUCCCUUGGCAGCCGCUGAAUGGCC [theeternabot_exclusion_KL_Theo_B_1],829 nM,644 nM,971 nM,835 nM,505 nM
AGGGACUCUUCGGAGUCCCGGUCAAGGGAUACCAGUGAUGUUGGUCACCCUUGGCAGCCCAGAAACCAAGCCACCAAAGGUGGCA [Omei KL Theo A Exc A v3],117 nM,97.9 nM,97.3 nM,103 nM,107 nM
AGUACAAUGGCGGCCGCCACUCAACGCAGAUCAAAGAUCUGCGAUCACUCAGUGAUGUUGAGUGAGAGGACCGGGCCUUUGUACA [Omei KL Tryp B SS B v6],354 nM,272 nM,307 nM,311 nM,135 nM

Sequence,apparent KD of K4 kissing-loop reporter (input ligand: FMN 200 uM),apparent KD of K4 kissing-loop reporter (input ligand: arginine 13.2 mM),apparent KD of K4 kissing-loop reporter (input ligand: none),apparent KD of K4 kissing-loop reporter [1],apparent KD of K4 kissing-loop reporter [2]
AGUACAAUGGCGGCCGCCACUCAACGCAGAUCAAAGAUCUGCGUUCACUCAGUGAUGUUGAGUGAGAGGACCGGGCCUUUGUACA [Omei KL Tryp B SS B v5],221 nM,180 nM,190 nM,170 nM,141 nM
AGUAGUUGGGCGGCCGCCACUGGAACAGCUUUGUCAAAGACAGAGCACUAGAGUGAUGUUCUAGCUAGGACCGGGUCCAACUACA [whbob_SS_Tryp_B_t17],460 nM,206 nM,533 nM,503 nM,991 nM
AGUAUGUAAUAUGGCAUAUUUAGAACUGAAGGAGCGCCGAAUAAGGCAGGUAGGUCGCGGUUUUAUGAGUGAUGUUCUUGUUUAA [KL-SSArg-A24],156 nM,125 nM,149 nM,329 nM,111 nM
AGUCCACUCUAAAGAGUGGACCUAAGGGAUACCAGUGAUGUUGGUCACCCUUGGCAGCCCGCUGUCAUCGAUAAAGAUGGCAGAA,136 nM,121 nM,120 nM,147 nM,120 nM
AGUGAUGUAUGGCGGUGUGUCACUUAAAAUCAGGAUAUAUAAACAAAUAGAAGGGAUGGCGGAGUGAUGUUCCGCCGGCCGCCAU [FMN A Exl V2],173 nM,147 nM,157 nM,165 nM,159 nM
AGUGCUAUGACGGCCGCCACUGAUUACCAGUGAUGUUGGUAGUCCAUUUACGACUUCCUGAUAACCAGGACCGGGUCAUAGGUCG [Tryp B Ex t2],702 nM,613 nM,807 nM,450 nM,201 nM
AGUGGACGUUACCGGAGUGAUGUUUCGGAUACCAGACACGAAAGUGUCCCUUGGCAGCCGUAGUGAUGUUACGGAGUUCACUAAA [KL-XTheo-A12 #KL 2],125 nM,61.5 nM,103 nM,88.7 nM,85.1 nM
AGUGUUAGGUUAGAUACCAGCCGUCUGUAGAUAAUCCUCAGACCGCCAGUGAUGUUGGCAGGCCCUUGGCAGCUAACAGAACAGA [Orbediqu],238 nM,206 nM,210 nM,154 nM,214 nM
AGUGUUAGGUUAGAUACCAGCCGUCUGUGAGUAACCCACAGACCGCCAGUGAUGUUGGCAGGCCCUUGGCAGCUAACAGGACAGA [Anesarerza],211 nM,226 nM,210 nM,152 nM,211 nM
AGUUAUGUAUCAGGAUAUUAGUGAUGUUUGUUUUUGUUAGUGAUGUUGAUAUUUGUUUUAUGUAUUUAAGAAGGGAUUGAGAUGU [qsszmullin],68.2 nM,20.5 nM,39.1 nM,29.4 nM,52.4 nM
AUACGCGAUAGCGUAUAUAACUUUUCAGAAGGAGCGUGGAAGUACACAGGUAGGUCGCUGAAUAUAGGACUAGUGAUGUUAGUUA [JR_Nu_SSArginiA_Sub025],195 nM,220 nM,235 nM,218 nM,186 nM
AUAGUGAGCUCGGCCGCCACUCCACUAUGUCAACAGUAGCUCUGUCAUAACCAGUGAUGUUGGUUGAGGACCGGGAGUUAAGACU [theeternabot_exclusion_KL_Trp_B_34],193 nM,164 nM,198 nM,195 nM,201 nM
AUCAUUAGUUCGGCCGCCACUCCAGUGAUGUUGGAGGGACGCAUAAUAUGCGCGCGGCCAACUAGGAGGACCGGGAACUUUAAGC [Intionge],120 nM,122 nM,118 nM,126 nM,103 nM
AUGACGGGUAGUGAUGUUAUCCACGAUGGGAAGGAUAUCAACCGUGUGAGAAGGUCCUUAUCGGUGCGGCACAUGCAGGUACUAC [theeternabot_sameState_KL_FMN_A_41],215 nM,264 nM,346 nM,452 nM,268 nM
AUGGACUCUUCGGAGUCCGCCUUAAGGGAUACCAGUGAUGUUGGUCACCCUUGGCAGCCUAGAAAGGAAGCCACCAAAGGUGGCA [Omei v1 mod #OpenEnded #Sliding],105 nM,114 nM,128 nM,160 nM,101 nM
AUGGGUUGUUGAAGGAGCGCCGCCAGUGAUGUUGGGAGUUAGAUACCAGUGAUGUUGGGCCGGCAGGUAGGUCGCGGCGAUUUAU [Exclusion Arginine B GF 19],347 nM,170 nM,484 nM,332 nM,344 nM
AUGUAUGAAUUAGGAUAUCGUGAGCCAUGCAUAUAUAUGAUAAAUGGAUAUGUCGUAGUGAUGUUACGAGAAGGAGUGUGGAGUA [KL-XFMN-B2],69.2 nM,73.6 nM,74.7 nM,90 nM,50.6 nM
AUGUGGAGCGACGUUUCGGGAUAUCGGGAAGGAGCGCUGAUAACGGCAGGUAGGUCGCCUGGUCCAGUGAUGUUGGGCAUGCAUU [Exclusion Arg A GF 24],150 nM,135 nM,270 nM,185 nM,155 nM
AUUAAUUUCAGAGGAUAUCGUUAUUUUUUUUAUUUUAUUCAUUUAUGCAGUGAUGUUGCUAUUAUUCGAGAAGGCUGAUUUAUAA [JR_ExcFMNB_Sub005],97.9 nM,126 nM,62.9 nM,146 nM,74.1 nM
AUUCGUUUUUGUGAUACCAGACAUGUGAGUGAUGUUUACAUAUAUAUUUAAUAUUUAGCUGUCCCUUGGCAGCACUGUUUAUUUA [JR_ExcTheophyB_Sub003],343 nM,384 nM,393 nM,444 nM,291 nM
AUUUAAUGUAUAGAUUAUAUACAUAAUUCAGAGGAUAUGCGAAGAAGCAGAAGGCUGGUUGCAGUGAUGUUGCUUUUAUAAUUUA [JR_SSFMNA_Sub009],32.8 nM,152 nM,85.9 nM,171 nM,59.9 nM
